Measured values from patent publication US20200347136A1 (published 2020).
One block for each binder: values may come before it. Bridge positions count the residues as written; N and C are the ends. Square brackets hold non-standard residues; d marks the D form. DBF = dibenzofuran moiety used in place of Pro-Pro

How the values were obtained:
[1] = molecular target: CD58 expressed on sheep red blood cells (SRBC) (sheep); assay: cell-based or functional assay
[2] = molecular target: T1, CD58 expressed on OVCAR-3 and HFLS-RA cells (human, UniProt P19256 29-250); assay: cell-based or functional assay
T1 sequence (looked up): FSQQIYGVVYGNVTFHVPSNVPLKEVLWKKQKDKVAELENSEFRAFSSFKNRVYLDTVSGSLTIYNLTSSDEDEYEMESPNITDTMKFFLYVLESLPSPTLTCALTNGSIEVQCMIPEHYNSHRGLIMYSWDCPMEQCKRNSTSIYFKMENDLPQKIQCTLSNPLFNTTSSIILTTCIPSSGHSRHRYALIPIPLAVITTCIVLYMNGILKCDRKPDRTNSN

IC50, inhibition of E-rosette formation [1]: 9.4 nM
Binder: cyclo(SIYD[dP]PDDIK) [Peptide 6]

IC50, cell adhesion inhibition [2]: 22 nM
B1: SFTI-a1 (peptide)
peptide: cyclo(CKSAPPSCAYDGDD)
modifications: disulfide 1-8
SMILES: C[C@@H]1NC(=O)[C@@H]2CSSC[C@H](NC(=O)[C@H](CC(=O)O)NC(=O)[C@H](CC(=O)O)NC(=O)CNC(=O)[C@H](CC(=O)O)NC(=O)[C@H](Cc3ccc(O)cc3)NC1=O)C(=O)N[C@@H](CCCCN)C(=O)N[C@@H](CO)C(=O)N[C@@H](C)C(=O)N1CCC[C@H]1C(=O)N1CCC[C@H]1C(=O)N[C@@H](CO)C(=O)N2

IC50, cell adhesion (PPI) inhibition [2]: 51 nM
B2: SFTI-a (peptide)
peptide: cyclo(CKASAPPSCYDGDD)
modifications: disulfide 1-9
SMILES: C[C@@H]1NC(=O)[C@H](CCCCN)NC(=O)[C@@H]2CSSC[C@H](NC(=O)[C@H](CO)NC(=O)[C@@H]3CCCN3C(=O)[C@@H]3CCCN3C(=O)[C@H](C)NC(=O)[C@H](CO)NC1=O)C(=O)N[C@@H](Cc1ccc(O)cc1)C(=O)N[C@@H](CC(=O)O)C(=O)NCC(=O)N[C@@H](CC(=O)O)C(=O)N[C@@H](CC(=O)O)C(=O)N2

IC50, inhibition of adhesion between Jurkat and HFLS-RA cells [2]: 3 nM
IC50, inhibition of adhesion between Jurkat and OVCAR-3 cells [2]: 0.61 nM
Binder: cyclo(CKSA[DBF]SCAYDGDD) (disulfide 1-7 (inferred)) [SFTI-DBF]
